In article PMC10434305 one finds crosslinked fraction and stoichiometry N (CapZ-CA:actin) data, which are given here for two substances.

The target in assay [1] is Arp3 L117C, C408A, C189A, C307A (subunit of human Arp2/3 complex for the crosslinking assay) (human) (UniProt P61158). Put plainly: cross-linking.
Assay [2] shares this target. Put plainly: cross-linking. This is another data set of the same source.
For assay [3] the target is unchanged. The experiment in a line: cross-linking. This is another data set of the same source.
Assay [4] deals with Skeletal α-actin, monomeric (G-actin) (UniProt P68135). The experiment in a line: SEC. In general terms: SEC sorts molecules by how far they enter the pores of the column.

Read-outs that look alike come from different tables or passages of the source.

Regarding “Arp2 L199C (subunit of human Arp2/3 complex for the crosslinking assay) (from UniProt P61160 1-394) (natural protein)”, the crosslinked fraction at plateau in assay [1] was determined as 14%; in assay [2], 34%; in assay [3], 34%.
In turn, “CapZ-CA hybrid heterodimer (CapZα-CA, CapZβ-CA) (from UniProt P52907;Q91YD9;P47756) (complex)” displayed a stoichiometry N (CapZ-CA:actin) in assay [4] of 1.
